Patent publication US20250145673A1
Changes are numbered by the printed parent chain.

B1: polypeptide having the amino acid sequence of SEQ ID NO: 27 (designed binder)
chain: MVKVKFEATGEEKEVDTSKIYQVYRSGKEVLFTYDDNGKTGWGYVSEKDAPKELLDMLARAEREK
B2: polypeptide comprising the amino acid sequence of SEQ ID NO: 33 (designed binder)
chain: MVKVKFAATGEEKEVETSKIANVYRVGKDVLFSYDDQGKIGWGYVSEKDAPKELLDLLARAEREK
B3: polypeptide comprising the amino acid sequence of SEQ ID NO: 34 (designed binder)
chain: B2 chain with A7D, A21S, N22A, V26T

Each binder was assayed against C3b (UniProt P01024) (assay: ITC, binder titrated into target).

Going from B1 to B2, the -TΔS falls from 23.9 kcal/mol to 6.5 kcal/mol.

Binder B3 has a -TΔS of 14.7 kcal/mol.

Going from B1 to B2, the Kd falls from 2.6 nM to 1.3 nM (2-fold).

B3 was tested, and the Kd was 0.7 nM.

Going from B1 to B2, the N falls from 0.95 to 0.9.

B3 showed an N of 0.89.

Compared with B1, B2 is lower in ΔG: -11.7 kcal/mol for the first, -12.1 kcal/mol for the second.

B3 showed a ΔG of -12.5 kcal/mol.

Compared with B1, B2 is higher in ΔH: -35.6 kcal/mol for the first, -18.6 kcal/mol for the second.

For B3, the ΔH was -27.2 kcal/mol.

What follows are binders tested against C3b (UniProt P01024) (assay: ITC).

Compared with B1, B2 is 2-fold lower in Kd: 2.6 nM for the first, 1.3 nM for the second. The second binds more tightly here.

With B3 the Kd was 0.7 nM.

The binders below were run against C3b (UniProt P01024) (assay: SPR, target amine-coupled to chip, single cycle kinetics, 1:1 Langmuir fit).

Going from B1 to B2, the Kd falls from 1.92 nM to 0.16 nM (12-fold). The second binds more tightly here.

With B3 the Kd was 0.42 nM.

These binders were tested against C3b (UniProt P01024) (assay: ITC, polypeptide titrated into C3b; fit box in the lower panel).

Going from B1 to B2, the Ka rises from 3.88e+08 M⁻¹ to 7.95e+08 M⁻¹ (2-fold).

B3 showed a Ka of 1.4e+09 M⁻¹.
